Laboratory results as given in patent publication US20190062438A1 (CSL, published 2019).

What was measured:
Test in all cases: SPR, kinetics, Fab over captured mutant
shCD131 S41A = molecular target: T1, shCD131 S41A (human, UniProt P32927 17-438)
T1 construct: C-terminal 6xHis
T1 sequence: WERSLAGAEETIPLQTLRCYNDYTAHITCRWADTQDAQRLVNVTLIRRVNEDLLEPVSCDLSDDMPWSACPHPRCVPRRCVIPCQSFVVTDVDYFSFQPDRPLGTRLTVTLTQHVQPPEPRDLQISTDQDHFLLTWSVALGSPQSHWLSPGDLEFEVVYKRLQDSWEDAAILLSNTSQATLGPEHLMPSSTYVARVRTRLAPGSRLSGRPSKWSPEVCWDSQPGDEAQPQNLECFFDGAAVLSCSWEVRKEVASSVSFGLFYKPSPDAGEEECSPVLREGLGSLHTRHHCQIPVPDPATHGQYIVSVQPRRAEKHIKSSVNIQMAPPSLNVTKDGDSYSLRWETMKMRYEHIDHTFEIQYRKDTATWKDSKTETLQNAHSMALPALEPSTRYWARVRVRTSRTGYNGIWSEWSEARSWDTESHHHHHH
Description: (§1) As shβc is a dimer, kinetics assays were performed with shβc captured on the sensor surface, and purified Fab injected as the analyte. Avidity effects were avoided by the use of Fab rather than whole IgG.
(§2) shCD131 was captured on spots 1 and 5 of each flow cell for 2 minutes at a concentration of 0.4 μg/ml. […] For some analysis purified Fab was injected over each flow cell for 3 minutes and dissociation was monitored for a further 10 minutes. Regeneration of the surface was performed after each cycle with a 40 second injection of 25 mM glycine, pH 2.0. The analysis was performed with Fabs at several concentrations between 100 and 0.31 nM, with each concentration analyzed twice and in random order. The analysis was performed at a flow rate of 30 μl/min in HBS-EP buffer (10 mM Hepes, 150 mM NaCl, 3 mM EDTA, 0.005% Tween 20, pH 7.4) at 37° C. Responses from spots 2 and 4 of each flow cell, (in which shβc was not captured, but otherwise treated identically), were subtracted from those of spots 1 and 5 respectively to produce reference subtracted data. Reference subtracted responses from a blank injection comprising buffer alone were subtracted from the resultant sensorgrams to produce double referenced data suitable for kinetic analysis. Double-referenced sensorgrams were fitted using non-linear regression to a model describing 1:1 kinetics, including a term for mass transport limitation. The Rₘₐₓ value was fitted locally to account for slight deviations in the level of sCD131 captured, with association rate (kₐ), dissociation rate (kd) and equilibrium dissociation constant (KD) fitted globally.
(§3) Mapping of the shCD131 epitope was performed by measurement of the affinity of Fabs for various alanine point mutants of shCD131 essentially as described above, with the following exceptions. Each shCD131 mutant was captured for 120 seconds at concentrations between 1 and 5 μg/ml. For kinetic analysis, purified recombinant Fabs were injected for 2 minutes, and dissociation was monitored for a further 2 minutes. […] Fab concentrations ranged from 16 μM to 3.9 nM in two-fold dilutions.

shCD131 M363A = molecular target: T2, shCD131 M363A (human, UniProt P32927 17-438)
T2 construct: C-terminal 6xHis
T2 sequence: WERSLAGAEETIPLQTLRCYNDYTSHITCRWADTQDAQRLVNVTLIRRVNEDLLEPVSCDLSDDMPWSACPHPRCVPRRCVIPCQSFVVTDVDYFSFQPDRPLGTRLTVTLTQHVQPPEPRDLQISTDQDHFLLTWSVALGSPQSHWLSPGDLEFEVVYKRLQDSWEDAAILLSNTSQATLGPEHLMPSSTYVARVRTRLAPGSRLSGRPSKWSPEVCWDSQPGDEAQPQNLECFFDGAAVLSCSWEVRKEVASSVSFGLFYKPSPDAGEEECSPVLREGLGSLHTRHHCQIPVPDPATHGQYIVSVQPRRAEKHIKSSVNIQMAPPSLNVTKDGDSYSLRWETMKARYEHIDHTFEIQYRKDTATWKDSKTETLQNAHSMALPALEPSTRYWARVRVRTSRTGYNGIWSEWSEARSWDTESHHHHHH
Description: as §1, §2, §3

shCD131 Y421A = molecular target: T3, shCD131 Y421A (human, UniProt P32927 17-438)
T3 construct: C-terminal 6xHis
T3 sequence: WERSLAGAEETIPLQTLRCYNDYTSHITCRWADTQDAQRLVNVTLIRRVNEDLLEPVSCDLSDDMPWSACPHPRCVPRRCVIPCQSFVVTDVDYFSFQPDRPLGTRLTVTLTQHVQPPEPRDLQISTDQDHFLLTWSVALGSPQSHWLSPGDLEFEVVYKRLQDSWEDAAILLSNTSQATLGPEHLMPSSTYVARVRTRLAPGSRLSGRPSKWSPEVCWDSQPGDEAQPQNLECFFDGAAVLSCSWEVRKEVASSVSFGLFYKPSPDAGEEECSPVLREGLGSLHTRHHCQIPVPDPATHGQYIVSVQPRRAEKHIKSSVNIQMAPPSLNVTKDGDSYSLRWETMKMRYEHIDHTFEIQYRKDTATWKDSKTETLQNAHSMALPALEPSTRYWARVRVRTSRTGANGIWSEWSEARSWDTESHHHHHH
Description: as §1, §2, §3

shCD131 I424A = molecular target: T4, shCD131 I424A (human, UniProt P32927 17-438)
T4 construct: C-terminal 6xHis; also called 1424A
T4 sequence: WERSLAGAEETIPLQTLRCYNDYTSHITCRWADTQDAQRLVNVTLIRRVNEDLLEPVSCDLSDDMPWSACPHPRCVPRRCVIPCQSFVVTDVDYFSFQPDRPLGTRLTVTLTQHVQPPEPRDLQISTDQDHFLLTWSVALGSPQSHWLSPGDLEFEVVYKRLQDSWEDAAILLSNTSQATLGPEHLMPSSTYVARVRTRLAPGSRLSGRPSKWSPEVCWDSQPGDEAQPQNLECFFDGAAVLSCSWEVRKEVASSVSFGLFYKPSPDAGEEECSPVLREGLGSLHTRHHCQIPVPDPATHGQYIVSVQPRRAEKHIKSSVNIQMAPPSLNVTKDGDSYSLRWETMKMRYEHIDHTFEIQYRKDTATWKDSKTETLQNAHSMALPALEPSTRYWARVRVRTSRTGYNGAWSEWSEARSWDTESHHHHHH
Description: as §1, §2, §3

B1: 9A2 Fab (Fab, V domains shown)
VH: EVQLLESGGGLVQPGGSLRLSCAASGFTFSHYHMLWVRQAPGKGLEWVSSIRSSGGFTYYADSVKGRFTISRDNSKNTLYLQMNSLRAEDTAVYYCARFYDSFFDIWGQGTMVTVSS
VL: DIQMTQSPSSVSASVGDRVTITCRASQGISSWLAWYQQKPGKAPKLLIYAASSLQSGVPSRFSGSGSGTDFTLTISSLQPEDFATYYCQQANSFPITFGQGTRLEIKR
notes: also called recombinant Fab of 9A2
**Q.** For B1, which Kd (shCD131 S41A) is on record?
**A.** 56 nM

**Q.** And the Kd (shCD131 M363A)?
**A.** 171 nM

**Q.** And the Kd (shCD131 Y421A)?
**A.** 167 nM

**Q.** And the Kd (shCD131 I424A)?
**A.** 126 nM
